Consider three molecules from paper PMC5027291, “The NF-YC–RGL2 module integrates GA and ABA signalling to regulate seed germination in Arabidopsis” (Nature Communications, 2016).

This assay concerns the target T1, GST-RGL2 (Arabidopsis, UniProt Q8GXW1 1-547).
T1 construct: RGL2 of Arabidopsis; coding region cloned into pGEX-4T-1; source: E. coli Rosetta (DE3), purified (Glutathione Sepharose beads); not shown: GST, N-terminal, kept
T1 sequence (looked up): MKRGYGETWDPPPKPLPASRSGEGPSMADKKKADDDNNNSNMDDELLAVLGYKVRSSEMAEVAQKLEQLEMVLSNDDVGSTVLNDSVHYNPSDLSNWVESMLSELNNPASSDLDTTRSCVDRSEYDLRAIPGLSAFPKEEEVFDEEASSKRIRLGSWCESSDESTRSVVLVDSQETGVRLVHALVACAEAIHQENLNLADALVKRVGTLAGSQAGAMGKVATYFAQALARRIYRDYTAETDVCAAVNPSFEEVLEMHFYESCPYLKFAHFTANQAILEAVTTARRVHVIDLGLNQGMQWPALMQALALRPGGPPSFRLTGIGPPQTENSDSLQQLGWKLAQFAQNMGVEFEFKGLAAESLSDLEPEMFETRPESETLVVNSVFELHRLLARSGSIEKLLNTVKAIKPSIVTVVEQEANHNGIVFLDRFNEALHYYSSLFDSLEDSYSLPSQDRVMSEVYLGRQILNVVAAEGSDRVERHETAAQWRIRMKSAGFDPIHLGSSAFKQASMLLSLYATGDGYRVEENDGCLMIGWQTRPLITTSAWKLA
The experiment in a line: pull-down; 2 ug of His-NF-YCs incubated with GST or GST-RGL2 immobilised on Glutathione Sepharose beads; 50 mM Tris-HCl pH 8.0, 100 mM NaCl, 1 mM EDTA; 4 °C, 2 h; blots with anti-His and anti-GST. Conditions: both partners purified.

B1: His-NF-YC9 (natural protein, Arabidopsis, UniProt Q8L4B2 1-231, looked up)
chain: MDQQDHGQSGAMNYGTNPYQTNPMSTTAATVAGGAAQPGQLAFHQIHQQQQQQQLAQQLQAFWENQFKEIEKTTDFKNHSLPLARIKKIMKADEDVRMISAEAPVVFARACEMFILELTLRSWNHTEENKRRTLQKNDIAAAVTRTDIFDFLVDIVPREDLRDEVLGSIPRGTVPEAAAAGYPYGYLPAGTAPIGNPGMVMGNPGGAYPPNPYMGQPMWQQQAPDQPDQEN
notes: NF-YC9 of Arabidopsis; coding region cloned into pQE30; source: E. coli Rosetta (DE3), purified (Ni-NTA agarose); not shown: His, N-terminal, kept
Turning to B1, the binding result is on record as “binds”.

B2: His-NF-YC4 (natural protein, Arabidopsis, UniProt Q9FMV5 1-250, looked up)
chain: MDNNNNNNNQQPPPTSVYPPGSAVTTVIPPPPSGSASIVTGGGATYHHLLQQQQQQLQMFWTYQRQEIEQVNDFKNHQLPLARIKKIMKADEDVRMISAEAPILFAKACELFILELTIRSWLHAEENKRRTLQKNDIAAAITRTDIFDFLVDIVPREEIKEEEDAASALGGGGMVAPAASGVPYYYPPMGQPAVPGGMMIGRPAMDPSGVYAQPPSQAWQSVWQNSAGGGDDVSYGSGGSSGHGNLDSQG
notes: NF-YC4 of Arabidopsis; coding region cloned into pQE30; source: E. coli Rosetta (DE3), purified (Ni-NTA agarose); not shown: His, N-terminal, kept
On to B2, for which the binding result was “binds”.

B3: His-NF-YC3 (natural protein, Arabidopsis, UniProt Q9ZVL3 1-217, looked up)
chain: MDQQGQSSAMNYGSNPYQTNAMTTTPTGSDHPAYHQIHQQQQQQLTQQLQSFWETQFKEIEKTTDFKNHSLPLARIKKIMKADEDVRMISAEAPVVFARACEMFILELTLRSWNHTEENKRRTLQKNDIAAAVTRTDIFDFLVDIVPREDLRDEVLGGVGAEAATAAGYPYGYLPPGTAPIGNPGMVMGNPGAYPPNPYMGQPMWQQPGPEQQDPDN
notes: NF-YC3 of Arabidopsis; coding region cloned into pQE30; source: E. coli Rosetta (DE3), purified (Ni-NTA agarose); not shown: His, N-terminal, kept
With B3, the binding result is “binds”.
